From paper PMC5573083, “Structural and Functional Analysis of the Escherichia coli Acid-Sensing Histidine Kinase EvgS” (Journal of Bacteriology, 2017)

Target: the molecule itself
Assay: AUC; purified protein dialysed against 50 mM Tris-HCl pH 7; OD280 of 1 (printed as 0.1 μM protein); 40,000 rpm, 20°C; 200 scans; analysed with Sedfit; monomer to dimer

B1: EvgS-Cyt (entire cytoplasmic region of the Escherichia coli histidine kinase EvgS, residues 553 to 1193) (domain or fragment, UniProt P30855 553-1193, looked up)
chain: WGFYLLRSVRRRKVIQGDLENQISFRKALSDSLPNPTYVVNWQGNVISHNSAFEHYFTADYYKNAMLPLENSDSPFKDVFSNAHEVTAETKENRTIYTQVFEIDNGIEKRCINHWHTLCNLPASDNAVYICGWQDITETRDLINALEVEKNKAIKATVAKSQFLATMSHEIRTPISSIMGFLELLSGSGLSKEQRVEAISLAYATGQSLLGLIGEILDVDKIESGNYQLQPQWVDIPTLVQNTCHSFGAIAASKSIALSCSSTFPEHYLVKIDPQAFKQVLSNLLSNALKFTTEGAVKITTSLGHIDDNHAVIKMTIMDSGSGLSQEEQQQLFKRYSQTSAGRQQTGSGLGLMICKELIKNMQGDLSLESHPGIGTTFTITIPVEISQQVATVEAKAEQPITLPEKLSILIADDHPTNRLLLKRQLNLLGYDVDEATDGVQALHKVSMQHYDLLITDVNMPNMDGFELTRKLREQNSSLPIWGLTANAQANEREKGLSCGMNLCLFKPLTLDVLKTHLSQLHQVAHIAPQYRHLDIEALKNNTANDLQLMQEILMTFQHETHKDLPAAFQALEAGDNRTFHQCIHRIHGAANILNLQKLINISHQLEITPVSDDSKPEILQLLNSVKEHIAELDQEIAVFC
notes: EvgS sensor histidine kinase, Escherichia coli, cytoplasmic domains comprising amino acid residues 553 to 1193; expected monomer mass printed as 72.3 kDa; Amplified from pBADEvgS and cloned NdeI-HindIII into a modified pET41c in which the GST tag is replaced by a C-terminal His8 tag; By the forward primer a start methionine precedes R553 (ATGCGCTCAGTTCGTCGTCGT); No cleavage of the tag is …
B1 was tested, and the “stoichiometry N” value was 2.
